Laboratory results: patent US20250313624A1

Legend:
[1] = biological target: discoidal lipid bilayer-membrane scaffold protein complex including GPCR1 transmembrane protein (human); assay: Octet assay; biotinylated complex with GPCR1 captured on streptavidin through the Bir-A tag of the membrane scaffold protein (FIG. 1B)
[2] = biological target: control discoidal lipid bilayer-membrane scaffold protein complex without GPCR1 (empty complex); assay: Octet assay; biotinylated empty complex captured on streptavidin through the Bir-A tag of the membrane scaffold protein (FIG. 1B)

Substance: streptavidin tethered to plates (from UniProt P22629 37-163)
- Octet response [1]: 3 nm
- Octet response [2]: 0.69 nm
